Results as given in patent EP4806514A2 (Lepu Biopharma Co., Ltd., dated 2025).

Legend:
[1] = target: T1, mouse CDH17-his (Kactus, Cat. No. CDH-MM117) (mouse, UniProt Q9R100 23-786, limits assumed); experiment: ELISA, antigen coated at 1 ug/mL
T1 construct: Bought; also called mouse CDH17 protein
T1 sequence (looked up): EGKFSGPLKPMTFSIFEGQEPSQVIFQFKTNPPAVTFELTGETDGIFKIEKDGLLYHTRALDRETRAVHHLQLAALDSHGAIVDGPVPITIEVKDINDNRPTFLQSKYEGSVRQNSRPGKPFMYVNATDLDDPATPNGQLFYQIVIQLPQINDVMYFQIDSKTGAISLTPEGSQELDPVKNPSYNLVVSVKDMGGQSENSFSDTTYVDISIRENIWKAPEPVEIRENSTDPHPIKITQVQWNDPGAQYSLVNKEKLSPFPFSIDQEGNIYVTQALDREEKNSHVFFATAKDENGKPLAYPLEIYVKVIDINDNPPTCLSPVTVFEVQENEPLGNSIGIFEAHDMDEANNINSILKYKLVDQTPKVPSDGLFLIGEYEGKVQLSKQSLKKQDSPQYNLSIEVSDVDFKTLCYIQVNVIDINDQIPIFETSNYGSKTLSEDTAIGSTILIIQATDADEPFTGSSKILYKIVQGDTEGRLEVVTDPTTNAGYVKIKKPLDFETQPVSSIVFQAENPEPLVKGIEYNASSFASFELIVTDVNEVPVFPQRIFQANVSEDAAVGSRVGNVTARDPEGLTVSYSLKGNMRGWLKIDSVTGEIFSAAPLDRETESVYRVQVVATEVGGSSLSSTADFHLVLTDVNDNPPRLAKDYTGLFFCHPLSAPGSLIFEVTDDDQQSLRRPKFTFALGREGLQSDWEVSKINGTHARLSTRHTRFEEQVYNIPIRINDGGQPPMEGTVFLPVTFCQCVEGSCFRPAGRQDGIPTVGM

[2] = target: T2, human CDH3-his protein (Kactus, Cat. No. CDH-HM103) (human, UniProt P22223 108-654, limits assumed); experiment: ELISA, antigen coated at 1 ug/mL
T2 construct: Bought; also called human CDH3 protein

[3] = target: T3, rhesus CDH17-his (Kactus, Cat. No. CDH-RM117) (rhesus, UniProt A0A1D5R2B4 23-784); experiment: ELISA, rhesus CDH17-his coated at 1 ug/mL
T3 construct: range 23-784; also called rhesus CDH17 protein
T3 sequence: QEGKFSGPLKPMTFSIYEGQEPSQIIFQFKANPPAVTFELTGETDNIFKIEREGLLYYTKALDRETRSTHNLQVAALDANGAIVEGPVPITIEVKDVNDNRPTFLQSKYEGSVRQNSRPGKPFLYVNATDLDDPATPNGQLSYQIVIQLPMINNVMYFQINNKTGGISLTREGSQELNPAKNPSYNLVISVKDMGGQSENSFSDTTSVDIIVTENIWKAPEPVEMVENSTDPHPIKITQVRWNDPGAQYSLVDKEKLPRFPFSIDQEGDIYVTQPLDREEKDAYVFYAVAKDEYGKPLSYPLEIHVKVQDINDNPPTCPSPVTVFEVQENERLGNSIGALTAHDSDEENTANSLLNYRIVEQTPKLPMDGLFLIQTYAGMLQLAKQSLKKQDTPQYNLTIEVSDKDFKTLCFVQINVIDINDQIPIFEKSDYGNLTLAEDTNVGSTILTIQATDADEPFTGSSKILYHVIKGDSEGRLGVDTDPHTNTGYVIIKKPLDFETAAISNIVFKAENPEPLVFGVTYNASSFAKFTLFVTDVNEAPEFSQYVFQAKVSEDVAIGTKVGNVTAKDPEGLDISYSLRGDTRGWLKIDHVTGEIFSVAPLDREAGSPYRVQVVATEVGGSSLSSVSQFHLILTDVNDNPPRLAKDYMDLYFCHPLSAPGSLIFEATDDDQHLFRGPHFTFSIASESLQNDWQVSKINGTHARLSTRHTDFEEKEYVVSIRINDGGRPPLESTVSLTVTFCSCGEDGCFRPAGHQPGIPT

[4] = target: T4, rhesus CDH17 overexpressed on HEK293 cells (HEK293-rhesus CDH17) (rhesus, UniProt A0A1D5R2B4 23-832); experiment: flow cytometry, HEK293-rhesus CDH17 cells
T4 construct: whole, on cells
T4 sequence: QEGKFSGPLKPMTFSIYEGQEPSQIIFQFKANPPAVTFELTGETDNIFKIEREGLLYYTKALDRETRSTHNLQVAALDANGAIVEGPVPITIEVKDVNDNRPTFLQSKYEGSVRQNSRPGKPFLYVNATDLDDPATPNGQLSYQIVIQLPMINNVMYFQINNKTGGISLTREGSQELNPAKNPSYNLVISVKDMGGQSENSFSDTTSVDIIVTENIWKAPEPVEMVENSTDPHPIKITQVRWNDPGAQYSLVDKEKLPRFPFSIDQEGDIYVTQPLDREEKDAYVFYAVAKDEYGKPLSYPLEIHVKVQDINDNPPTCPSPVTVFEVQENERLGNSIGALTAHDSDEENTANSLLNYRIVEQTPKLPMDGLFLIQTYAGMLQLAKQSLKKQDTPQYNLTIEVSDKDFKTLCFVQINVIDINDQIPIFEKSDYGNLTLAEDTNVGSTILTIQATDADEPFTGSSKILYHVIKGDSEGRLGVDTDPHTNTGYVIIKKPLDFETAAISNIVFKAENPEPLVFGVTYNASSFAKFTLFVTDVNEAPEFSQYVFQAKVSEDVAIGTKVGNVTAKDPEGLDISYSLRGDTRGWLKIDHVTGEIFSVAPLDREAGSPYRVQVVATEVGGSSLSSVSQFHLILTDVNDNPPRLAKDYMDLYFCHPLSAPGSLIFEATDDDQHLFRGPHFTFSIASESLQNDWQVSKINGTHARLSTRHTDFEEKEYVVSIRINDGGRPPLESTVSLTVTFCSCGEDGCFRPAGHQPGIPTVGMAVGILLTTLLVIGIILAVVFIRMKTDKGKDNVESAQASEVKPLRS

T2 sequence (P22223 108-654 limits assumed): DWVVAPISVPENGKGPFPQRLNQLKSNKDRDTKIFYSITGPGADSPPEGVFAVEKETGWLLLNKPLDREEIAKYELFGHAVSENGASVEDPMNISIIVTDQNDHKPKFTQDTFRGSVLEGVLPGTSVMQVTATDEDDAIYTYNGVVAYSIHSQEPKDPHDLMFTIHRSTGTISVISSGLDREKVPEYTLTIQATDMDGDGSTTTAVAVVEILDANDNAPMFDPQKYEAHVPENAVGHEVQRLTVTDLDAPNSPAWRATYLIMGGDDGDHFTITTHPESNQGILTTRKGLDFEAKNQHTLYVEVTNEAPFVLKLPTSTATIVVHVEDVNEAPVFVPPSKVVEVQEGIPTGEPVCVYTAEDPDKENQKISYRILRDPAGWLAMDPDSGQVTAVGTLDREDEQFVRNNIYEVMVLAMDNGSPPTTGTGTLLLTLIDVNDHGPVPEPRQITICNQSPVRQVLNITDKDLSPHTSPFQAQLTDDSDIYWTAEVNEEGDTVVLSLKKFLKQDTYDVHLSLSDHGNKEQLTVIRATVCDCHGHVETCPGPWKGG

B1: 29H8D3-z12 (antibody, V domains shown)
VH: QVQLVQSGAEVKKPGASVKVSCKASGYTFTDHTIHWMRQRPGQGLEWIGYIYPRDGYTKYNEKFKDRATLTADTSTSTAYMELRSLRSDDTAVYYCARFYYGYWYFDVWGQGTTVTVSS
VL: DIVMTQSPLSLPVTPGEPASISCRSSKSLLRSNGNTYLYWFLQKPGQSPQVLIYRMSNLASGVPDRFSGSGSGTDFTLKISRVEAEDVGVYYCMQHLEYPFTFGQGTKLEIK
notes: Humanized, human IgG1 constant region; also called 29H8D3-z12 mAb
- binding result [1]: no binding (tested: titrated from 50 nM)
- binding result [2]: no binding (tested: titrated from 50 nM)
- EC50 [3]: 0.163 nM
- EC50 [4]: 0.225 nM
